The numbers were not newly measured in publication PMC3496038, which cites them from elsewhere.

Series [1] concerns the target GluA1 NTD (Rattus norvegicus) (UniProt P19490). As to the kind of experiment: analytical ultracentrifugation.
Series [2] addresses GluA3 NTD (Rattus norvegicus) (UniProt P19492). Description: analytical ultracentrifugation.

Usually Kd stands for the constant that tells how readily two partners part at equilibrium. As for GluA1 NTD (from UniProt P19490), the Kd in series [1] was 100 nM.
With GluA3 NTD (from UniProt P19492), in series [2], the Kd is 1000 nM.
